In US20150191517A1:
Where no end group is shown, it is not given here. [ ]: non-standard residue; d: D form.

B1: Protoxin II-D-Trp (peptide)
peptide: YCQKWMWTCDSERKCCEGMVCRLWCKKKLWW
modifications: not fully specified; ends and bridges not checked
B2: Protoxin II (D)-NHcyclohexyl (peptide)
peptide: YCQKWMWTCDSERKCCEGMVCRLWCKKKL[dW]-NHcyclohexyl
modifications: ends and bridges not checked

How the values were obtained:
Test in all cases: cell-based or functional assay
[1] = target: Nav1.2 (rBIIa) (rat (printed only as rBIIa)) (UniProt P04775)
Chain of Nav1.2 (rBIIa) (rat (printed only as rBIIa)) (P04775 whole entry): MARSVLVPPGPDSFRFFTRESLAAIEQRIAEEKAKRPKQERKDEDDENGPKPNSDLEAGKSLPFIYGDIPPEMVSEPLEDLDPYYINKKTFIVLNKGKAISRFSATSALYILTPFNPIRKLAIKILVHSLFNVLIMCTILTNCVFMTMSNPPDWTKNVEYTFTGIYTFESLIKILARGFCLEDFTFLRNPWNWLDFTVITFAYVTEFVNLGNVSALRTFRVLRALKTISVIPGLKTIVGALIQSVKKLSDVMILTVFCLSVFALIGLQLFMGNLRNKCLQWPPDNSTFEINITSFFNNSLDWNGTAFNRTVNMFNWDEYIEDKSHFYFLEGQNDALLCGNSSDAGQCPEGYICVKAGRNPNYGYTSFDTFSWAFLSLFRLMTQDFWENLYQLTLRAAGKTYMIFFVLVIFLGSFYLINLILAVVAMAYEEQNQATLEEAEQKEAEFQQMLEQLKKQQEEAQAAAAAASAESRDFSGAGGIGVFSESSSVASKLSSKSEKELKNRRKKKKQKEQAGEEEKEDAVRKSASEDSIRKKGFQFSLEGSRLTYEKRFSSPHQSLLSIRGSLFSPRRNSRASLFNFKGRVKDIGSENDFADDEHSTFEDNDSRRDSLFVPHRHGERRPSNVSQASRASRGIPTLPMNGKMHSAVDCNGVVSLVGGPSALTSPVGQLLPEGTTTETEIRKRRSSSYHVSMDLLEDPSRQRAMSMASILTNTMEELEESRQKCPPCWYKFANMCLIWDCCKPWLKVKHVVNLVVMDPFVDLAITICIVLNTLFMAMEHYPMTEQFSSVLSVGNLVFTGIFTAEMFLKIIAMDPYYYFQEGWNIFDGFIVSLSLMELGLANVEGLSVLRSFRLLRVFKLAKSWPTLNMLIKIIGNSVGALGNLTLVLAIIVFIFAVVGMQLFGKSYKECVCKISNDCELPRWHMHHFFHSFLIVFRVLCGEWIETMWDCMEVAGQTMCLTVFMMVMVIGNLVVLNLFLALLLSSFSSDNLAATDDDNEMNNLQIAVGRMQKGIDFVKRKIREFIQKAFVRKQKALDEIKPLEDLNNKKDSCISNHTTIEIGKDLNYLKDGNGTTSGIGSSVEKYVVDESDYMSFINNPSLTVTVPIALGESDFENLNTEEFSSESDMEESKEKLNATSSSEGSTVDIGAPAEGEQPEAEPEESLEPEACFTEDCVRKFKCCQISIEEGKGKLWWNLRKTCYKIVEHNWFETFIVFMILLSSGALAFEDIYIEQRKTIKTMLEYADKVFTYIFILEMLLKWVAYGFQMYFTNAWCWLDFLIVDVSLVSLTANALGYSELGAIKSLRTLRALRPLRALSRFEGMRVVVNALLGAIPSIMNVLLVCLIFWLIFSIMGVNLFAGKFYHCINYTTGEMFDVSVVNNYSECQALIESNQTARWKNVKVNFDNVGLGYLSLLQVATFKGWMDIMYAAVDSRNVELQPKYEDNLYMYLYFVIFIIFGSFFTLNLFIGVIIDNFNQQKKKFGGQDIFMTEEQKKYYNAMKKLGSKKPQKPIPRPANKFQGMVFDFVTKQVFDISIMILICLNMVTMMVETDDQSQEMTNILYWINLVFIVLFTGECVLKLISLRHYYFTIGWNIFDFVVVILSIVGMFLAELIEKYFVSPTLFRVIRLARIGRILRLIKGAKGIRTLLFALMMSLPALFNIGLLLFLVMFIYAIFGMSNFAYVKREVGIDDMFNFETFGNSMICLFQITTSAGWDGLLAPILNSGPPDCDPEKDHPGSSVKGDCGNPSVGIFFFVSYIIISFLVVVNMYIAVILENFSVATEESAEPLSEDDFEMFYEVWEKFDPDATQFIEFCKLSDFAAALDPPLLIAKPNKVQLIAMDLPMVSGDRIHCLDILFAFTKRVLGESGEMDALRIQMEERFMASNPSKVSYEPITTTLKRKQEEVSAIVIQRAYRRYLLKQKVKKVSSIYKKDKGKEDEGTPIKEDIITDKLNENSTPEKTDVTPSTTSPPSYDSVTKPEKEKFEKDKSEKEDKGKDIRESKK

[2] = target: human Nav1.7 alpha-subunit (human) (UniProt Q15858)
Chain of human Nav1.7 alpha-subunit (human) (Q15858 whole entry): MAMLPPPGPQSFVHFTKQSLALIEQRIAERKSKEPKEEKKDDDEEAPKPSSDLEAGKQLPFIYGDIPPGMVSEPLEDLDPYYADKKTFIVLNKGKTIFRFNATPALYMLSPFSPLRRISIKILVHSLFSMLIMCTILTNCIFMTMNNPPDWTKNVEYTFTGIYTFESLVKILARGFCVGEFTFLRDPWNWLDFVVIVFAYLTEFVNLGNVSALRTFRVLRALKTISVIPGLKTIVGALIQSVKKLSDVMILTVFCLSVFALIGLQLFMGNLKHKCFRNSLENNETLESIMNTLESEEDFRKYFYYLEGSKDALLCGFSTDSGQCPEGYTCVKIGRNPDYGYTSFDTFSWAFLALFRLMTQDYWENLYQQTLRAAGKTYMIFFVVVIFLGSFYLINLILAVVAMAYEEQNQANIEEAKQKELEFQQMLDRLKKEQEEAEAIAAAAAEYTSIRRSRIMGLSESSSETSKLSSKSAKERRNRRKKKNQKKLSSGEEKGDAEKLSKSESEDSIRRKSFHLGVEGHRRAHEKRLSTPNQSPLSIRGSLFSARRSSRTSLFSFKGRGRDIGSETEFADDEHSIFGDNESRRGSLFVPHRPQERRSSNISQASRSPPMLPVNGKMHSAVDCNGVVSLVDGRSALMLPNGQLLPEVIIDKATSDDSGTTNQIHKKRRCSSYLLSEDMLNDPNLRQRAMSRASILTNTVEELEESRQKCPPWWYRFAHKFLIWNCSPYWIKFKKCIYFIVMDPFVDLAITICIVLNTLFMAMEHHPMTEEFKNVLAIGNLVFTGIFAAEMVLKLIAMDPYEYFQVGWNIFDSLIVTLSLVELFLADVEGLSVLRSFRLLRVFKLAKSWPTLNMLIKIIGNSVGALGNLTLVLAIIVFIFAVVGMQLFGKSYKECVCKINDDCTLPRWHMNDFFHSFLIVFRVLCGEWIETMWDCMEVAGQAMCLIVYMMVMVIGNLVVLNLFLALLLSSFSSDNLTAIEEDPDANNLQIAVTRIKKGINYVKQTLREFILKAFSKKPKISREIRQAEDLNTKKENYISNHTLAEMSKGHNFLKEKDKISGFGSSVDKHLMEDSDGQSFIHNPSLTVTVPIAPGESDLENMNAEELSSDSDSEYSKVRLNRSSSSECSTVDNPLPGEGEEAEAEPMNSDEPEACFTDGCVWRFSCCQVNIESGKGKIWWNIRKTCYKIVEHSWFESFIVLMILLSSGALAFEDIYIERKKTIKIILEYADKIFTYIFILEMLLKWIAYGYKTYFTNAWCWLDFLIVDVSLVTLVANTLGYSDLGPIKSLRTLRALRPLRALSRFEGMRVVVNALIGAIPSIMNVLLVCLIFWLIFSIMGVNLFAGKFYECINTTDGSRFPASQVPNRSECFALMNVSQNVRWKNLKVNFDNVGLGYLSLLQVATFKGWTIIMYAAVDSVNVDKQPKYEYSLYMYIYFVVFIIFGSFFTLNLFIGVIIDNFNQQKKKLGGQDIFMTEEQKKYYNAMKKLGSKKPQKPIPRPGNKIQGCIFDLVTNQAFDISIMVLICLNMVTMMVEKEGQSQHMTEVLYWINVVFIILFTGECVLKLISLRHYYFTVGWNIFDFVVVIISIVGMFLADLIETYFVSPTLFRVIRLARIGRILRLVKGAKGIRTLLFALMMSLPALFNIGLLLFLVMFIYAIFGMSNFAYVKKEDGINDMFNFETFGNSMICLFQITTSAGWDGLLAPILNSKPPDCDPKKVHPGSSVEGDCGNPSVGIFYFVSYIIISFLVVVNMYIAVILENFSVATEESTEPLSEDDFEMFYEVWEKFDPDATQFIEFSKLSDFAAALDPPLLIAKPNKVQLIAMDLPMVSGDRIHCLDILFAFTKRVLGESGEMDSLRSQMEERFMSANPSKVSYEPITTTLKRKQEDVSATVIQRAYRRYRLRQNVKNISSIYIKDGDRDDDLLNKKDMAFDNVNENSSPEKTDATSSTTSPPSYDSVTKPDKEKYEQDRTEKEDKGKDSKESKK

[3] = target: human Nav1.7 alpha-subunit (human), Q15858
Chain of human Nav1.7 alpha-subunit (human), Q15858 (Q15858 whole entry): as above

[4] = target: Nav1.2 (rBIIa) (rat (printed only as rBIIa)), P04775
Chain of Nav1.2 (rBIIa) (rat (printed only as rBIIa)), P04775 (P04775 whole entry): as the sequence (P04775 whole entry) above

| Molecule | Nav1.2 IC50 (nM), EP (electrophysiology) sodium channel blocking activity [1] | Nav1.2 IC50 (nM), FLIPR sodium channel blocking activity [1] | Nav1.7 IC50 (nM), FLIPR sodium channel blocking activity [2] | Nav1.7 IC50 (nM), FLIPR sodium channel blocking activity [3] | Nav1.2 IC50 (nM), FLIPR sodium channel blocking activity [4] |
| --- | --- | --- | --- | --- | --- |
| Protoxin II (peptide) | 100 nM | 379 nM | – | – | – |
| B1 | – | 102 nM | 16.5 nM | – | – |
| B2 | – | – | – | 31 nM | 336 nM |
